Laboratory results reported in article doi:10.1101/2022.10.17.512494.

Target: recombinant VE-cadherin-Fc (UniProt P55284)
Assay: atomic force microscopy

binding activity (binding probability): 61%
Substance: recombinant VE-cadherin-Fc (from UniProt P55284 46-599) (Fc fusion)
